These results are taken from PMC3799435, “Dissecting the interactions of SERRATE with RNA and DICER-LIKE 1 in Arabidopsis microRNA precursor processing” (Nucleic Acids Research, 2013).

The target of one data set is DCL1 (Arabidopsis thaliana, UniProt Q9SP32 1-1909). Put plainly: SPR; 50 mM NaCl; SPR (Biacore T100): 20 mM Tris-HCl pH 7.0, 50 or 150 mM NaCl, 2 mM β-ME (0.005% P20 for SE variants); proteins 42-43 nM (Fig 2E), SE 20 nM (Fig 4), 16 nM DCL1 for complex; temperature not stated. The settings on record: protein: recombinant; tags: none (His6-StrepII-SUMOstar removed); chain copies: 3; label: 5'-biotin on strand 1; fork: 40 bp duplex; 20-nt 3' tail of strand 1 and 20-nt 5' tail of strand 2 unpaired; other end blunt. On the technique in general: In SPR one partner is held on a chip, and binding of the other changes the refractive index at the surface.

The target in the next data set is T1, SE (untagged) (Arabidopsis thaliana, UniProt Q9ZVD0 1-720).
T1 sequence: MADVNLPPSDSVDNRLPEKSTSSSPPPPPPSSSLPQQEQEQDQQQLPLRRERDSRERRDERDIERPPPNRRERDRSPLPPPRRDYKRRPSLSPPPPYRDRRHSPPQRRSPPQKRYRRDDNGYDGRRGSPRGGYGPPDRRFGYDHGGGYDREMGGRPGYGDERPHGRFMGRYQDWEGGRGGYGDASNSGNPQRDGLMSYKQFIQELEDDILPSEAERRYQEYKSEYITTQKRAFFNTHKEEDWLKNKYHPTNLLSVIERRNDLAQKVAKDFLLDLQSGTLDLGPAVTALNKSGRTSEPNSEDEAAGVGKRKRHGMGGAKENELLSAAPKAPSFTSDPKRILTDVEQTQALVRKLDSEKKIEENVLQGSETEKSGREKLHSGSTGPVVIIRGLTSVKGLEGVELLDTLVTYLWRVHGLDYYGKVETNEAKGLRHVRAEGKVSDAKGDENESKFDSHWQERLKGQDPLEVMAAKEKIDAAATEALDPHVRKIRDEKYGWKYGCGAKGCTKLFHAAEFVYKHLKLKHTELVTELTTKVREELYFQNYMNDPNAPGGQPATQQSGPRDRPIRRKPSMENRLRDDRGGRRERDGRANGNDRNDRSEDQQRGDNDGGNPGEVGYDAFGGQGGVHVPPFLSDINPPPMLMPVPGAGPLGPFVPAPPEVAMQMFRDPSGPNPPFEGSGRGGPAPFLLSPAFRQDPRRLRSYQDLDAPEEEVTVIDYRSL
Put plainly: SPR; 50 mM NaCl; weaker than DCL1, rapid dissociation; SPR (Biacore T100): 20 mM Tris-HCl pH 7.0, 50 or 150 mM NaCl, 2 mM β-ME (0.005% P20 for SE variants); proteins 42-43 nM (Fig 2E), SE 20 nM (Fig 4), 16 nM DCL1 for complex; temperature not stated. The following applies: protein: recombinant; tags: none (His6-StrepII-SUMOstar removed); label: 5'-biotin on strand 1; fork: 40 bp duplex; 20-nt 3' tail of strand 1 and 20-nt 5' tail of strand 2 unpaired; other end blunt.

Another data set deals with T2, SE143-720 (Arabidopsis thaliana, UniProt Q9ZVD0 143-720, del1-142).
T2 sequence: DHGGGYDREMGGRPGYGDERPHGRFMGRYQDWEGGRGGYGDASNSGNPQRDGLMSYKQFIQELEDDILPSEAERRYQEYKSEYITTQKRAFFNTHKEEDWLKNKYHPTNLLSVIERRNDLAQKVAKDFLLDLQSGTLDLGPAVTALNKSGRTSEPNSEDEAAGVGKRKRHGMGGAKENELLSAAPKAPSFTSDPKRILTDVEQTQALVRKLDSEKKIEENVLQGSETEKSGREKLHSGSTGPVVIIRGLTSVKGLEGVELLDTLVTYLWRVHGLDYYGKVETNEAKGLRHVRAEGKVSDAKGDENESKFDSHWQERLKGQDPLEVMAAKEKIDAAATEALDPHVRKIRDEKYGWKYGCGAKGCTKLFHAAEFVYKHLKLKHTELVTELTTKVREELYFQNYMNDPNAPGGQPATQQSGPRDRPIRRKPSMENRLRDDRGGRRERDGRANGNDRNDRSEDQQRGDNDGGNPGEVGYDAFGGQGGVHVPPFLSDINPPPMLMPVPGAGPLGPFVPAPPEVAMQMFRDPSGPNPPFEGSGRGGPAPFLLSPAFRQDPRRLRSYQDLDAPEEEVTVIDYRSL
Put plainly: SPR; 50 mM NaCl, 20 nM protein; SPR (Biacore T100): 20 mM Tris-HCl pH 7.0, 50 or 150 mM NaCl, 2 mM β-ME (0.005% P20 for SE variants); proteins 42-43 nM (Fig 2E), SE 20 nM (Fig 4), 16 nM DCL1 for complex; temperature not stated. The settings on record: protein: recombinant; tags: N-terminal His6; vector also has inserted myc and Strep-tag II; label: 5'-biotin on strand 1; fork: 40 bp duplex; 20-nt 3' tail of strand 1 and 20-nt 5' tail of strand 2 unpaired; other end blunt.

In another data set the target is T3, SE (His-tagged) (Arabidopsis thaliana, UniProt Q9ZVD0 1-720).
T3 sequence: T1 sequence
Described as above. The following applies: protein: recombinant; tags: N-terminal His6; vector also has inserted myc and Strep-tag II; label: 5'-biotin on strand 1; fork: 40 bp duplex; 20-nt 3' tail of strand 1 and 20-nt 5' tail of strand 2 unpaired; other end blunt.

Another data set has as its target DCL1;SE143-720 (Arabidopsis thaliana;Arabidopsis …, UniProt Q9SP32;Q9ZVD0 1-1909;143-720, |del1-142). Put plainly: SPR; SE143-720 injected on preformed DCL1/RNA complex, 50 mM NaCl; SPR (Biacore T100): 20 mM Tris-HCl pH 7.0, 50 or 150 mM NaCl, 2 mM β-ME (0.005% P20 for SE variants); proteins 42-43 nM (Fig 2E), SE 20 nM (Fig 4), 16 nM DCL1 for complex; temperature not stated. The following applies: protein: recombinant;recombinant; tags: none (His6-StrepII-SUMOstar removed);N-terminal His6; vector also has inserted myc and Strep-tag II; label: 5'-biotin on strand 1; fork: 40 bp duplex; 20-nt 3' tail of strand 1 and 20-nt 5' tail of strand 2 unpaired; other end blunt.

For another data set, the target named is DCL1;SE (His-tagged) (Arabidopsis thaliana;Arabidopsis …, UniProt Q9SP32;Q9ZVD0 1-1909;1-720, |). Put plainly: SPR; SE injected on preformed DCL1/RNA complex, 50 mM NaCl; SE:DCL1 2.4:1; SPR (Biacore T100): 20 mM Tris-HCl pH 7.0, 50 or 150 mM NaCl, 2 mM β-ME (0.005% P20 for SE variants); proteins 42-43 nM (Fig 2E), SE 20 nM (Fig 4), 16 nM DCL1 for complex; temperature not stated. The settings on record: protein: recombinant;recombinant; tags: none (His6-StrepII-SUMOstar removed);N-terminal His6; vector also has inserted myc and Strep-tag II; label: 5'-biotin on strand 1; fork: 40 bp duplex; 20-nt 3' tail of strand 1 and 20-nt 5' tail of strand 2 unpaired; other end blunt.
Chain of DCL1;SE (His-tagged) (Q9SP32 whole entry, one chain of several): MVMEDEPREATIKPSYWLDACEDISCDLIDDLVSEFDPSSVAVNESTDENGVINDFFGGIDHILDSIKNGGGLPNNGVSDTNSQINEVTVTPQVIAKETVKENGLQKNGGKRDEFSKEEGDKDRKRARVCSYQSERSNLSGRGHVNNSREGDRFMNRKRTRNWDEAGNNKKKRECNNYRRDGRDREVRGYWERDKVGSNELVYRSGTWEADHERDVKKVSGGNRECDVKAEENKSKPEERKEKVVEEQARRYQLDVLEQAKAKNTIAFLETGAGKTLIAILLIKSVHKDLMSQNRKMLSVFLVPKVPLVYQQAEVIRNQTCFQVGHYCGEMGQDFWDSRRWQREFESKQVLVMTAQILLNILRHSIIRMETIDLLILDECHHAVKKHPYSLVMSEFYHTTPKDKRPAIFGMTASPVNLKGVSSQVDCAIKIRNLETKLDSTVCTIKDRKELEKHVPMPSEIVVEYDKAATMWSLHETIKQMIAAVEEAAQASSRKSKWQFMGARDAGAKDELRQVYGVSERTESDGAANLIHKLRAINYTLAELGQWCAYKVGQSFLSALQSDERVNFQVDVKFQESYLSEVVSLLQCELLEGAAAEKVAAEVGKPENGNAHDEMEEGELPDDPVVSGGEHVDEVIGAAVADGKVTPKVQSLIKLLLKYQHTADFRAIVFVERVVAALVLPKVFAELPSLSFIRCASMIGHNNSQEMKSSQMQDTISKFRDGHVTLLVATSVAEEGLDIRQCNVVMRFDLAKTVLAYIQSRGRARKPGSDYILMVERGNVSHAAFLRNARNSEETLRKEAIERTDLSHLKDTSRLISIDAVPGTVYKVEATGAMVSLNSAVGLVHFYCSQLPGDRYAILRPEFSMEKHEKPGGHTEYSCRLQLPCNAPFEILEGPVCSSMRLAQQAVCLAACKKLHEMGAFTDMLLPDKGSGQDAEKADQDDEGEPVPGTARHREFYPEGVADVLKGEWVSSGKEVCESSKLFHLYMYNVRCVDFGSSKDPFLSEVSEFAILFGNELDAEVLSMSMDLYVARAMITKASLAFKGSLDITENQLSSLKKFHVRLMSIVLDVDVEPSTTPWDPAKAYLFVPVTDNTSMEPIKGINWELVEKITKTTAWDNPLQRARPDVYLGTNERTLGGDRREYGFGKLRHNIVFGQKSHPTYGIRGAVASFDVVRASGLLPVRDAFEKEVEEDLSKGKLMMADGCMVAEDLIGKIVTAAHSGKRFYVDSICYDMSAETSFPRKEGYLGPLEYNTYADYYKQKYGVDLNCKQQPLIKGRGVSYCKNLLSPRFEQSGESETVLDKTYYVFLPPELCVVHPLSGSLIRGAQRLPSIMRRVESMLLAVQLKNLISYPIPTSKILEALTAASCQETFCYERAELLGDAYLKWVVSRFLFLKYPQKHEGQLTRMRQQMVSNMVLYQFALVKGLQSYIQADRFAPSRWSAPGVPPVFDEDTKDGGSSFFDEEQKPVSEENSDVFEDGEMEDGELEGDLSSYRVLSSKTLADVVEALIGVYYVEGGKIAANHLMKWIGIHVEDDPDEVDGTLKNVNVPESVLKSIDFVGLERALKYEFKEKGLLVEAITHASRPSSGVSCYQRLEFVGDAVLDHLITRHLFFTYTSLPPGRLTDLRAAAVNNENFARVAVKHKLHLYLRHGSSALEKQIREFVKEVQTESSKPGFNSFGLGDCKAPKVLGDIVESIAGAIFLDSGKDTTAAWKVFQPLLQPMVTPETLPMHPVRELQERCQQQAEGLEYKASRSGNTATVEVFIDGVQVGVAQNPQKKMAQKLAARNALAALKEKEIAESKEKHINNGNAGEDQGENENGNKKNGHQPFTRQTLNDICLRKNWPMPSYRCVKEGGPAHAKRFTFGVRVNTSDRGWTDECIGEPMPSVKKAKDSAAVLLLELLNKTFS

Chain of DCL1 (Q9SP32 whole entry): as the sequence (Q9SP32 whole entry, one chain of several) above
Chain of DCL1;SE143-720 (Q9SP32 whole entry, stated change not applied, one chain of several): as the sequence (Q9SP32 whole entry, one chain of several) above

B1: forked-RNA (dsRNA)
RNA 1: CAACCCAAGAUAGAUCAUGCAGGCAGCUUCAUCAGAUGCCGCUCCCUCUUUUUUUCUCUA
RNA 2: GCUCCCUCUUUUUUUCUCUAGGCAUCUGAUGAAGCUGCCUGCAUGAUCUAUCUUGGGUUG
B1: the binding result with DCL1, with SE (untagged), in the data set with SE (His-tagged) and with DCL1;SE (His-tagged) was “binds” throughout. Further, the binding signal with SE143-720 is 6 fold reduction vs wild-type SE; in the data set with DCL1;SE143-720, 2 fold less RUmax vs wild-type SE.
